Key:
[1] = target: T1, ADI-22523 Fab; assay: BLI; tip anti-ID IgG, solution ADI-22523 Fab
T1 construct: anti-CD3 Fab by papain digestion of the IgG
Procedure, shortened: (§1)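 Bio-layer interferometry with anti-ID IgG loaded on AHC tips. KD (koff/kon) from 1:1 binding model fit; avid format.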

[2] = target: T2, ADI-22523 IgG; assay: BLI; tip anti-ID IgG, solution ADI-22523 IgG
T2 construct: anti-CD3 IgG
Procedure, shortened: as §1

[3] = target: T3, ADI-76362; assay: SPR Carterra avidity, yeast anti-ID
T3 construct: anti-CD3 antibody made in CHO cells, captured by anti-human Fc
Procedure, shortened: (§2)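 Goat anti-human Fc was amine-coupled to an HC30M sensor chip, then anti-CD3 antibodies at 100 nM were flowed over discrete spots for 5 min. Anti-idiotype antibodies were run in non-regenerative kinetic cycles at 25° C in HBSTE, with 300s dissociation. Blank-subtracted sensorgrams were fitted 1:1.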

[4] = target: T4, ADI-26921 IgG; assay: SPR Carterra avidity, yeast anti-ID
T4 construct: anti-CD3 IgG
Procedure, shortened: as §2

[5] = target: T5, ADI-76357; assay: SPR Carterra avidity, yeast anti-ID
T5 construct: anti-CD3 antibody made in CHO cells, captured by anti-human Fc
Procedure, shortened: as §2

[6] = target: T6, ADI-76358; assay: SPR Carterra avidity, yeast anti-ID
T6 construct: anti-CD3 antibody made in CHO cells, captured by anti-human Fc
Procedure, shortened: as §2

[7] = target: T7, ADI-26916 IgG; assay: SPR Carterra avidity, yeast anti-ID
T7 construct: anti-CD3 IgG
Procedure, shortened: as §2

[8] = target: T8, ADI-76359; assay: SPR Carterra avidity, yeast anti-ID
T8 construct: anti-CD3 antibody made in CHO cells, captured by anti-human Fc
Procedure, shortened: as §2

[9] = target: T9, ADI-70330; assay: SPR Carterra avidity, yeast anti-ID
T9 construct: anti-CD3 antibody made in CHO cells, captured by anti-human Fc
Procedure, shortened: as §2

[10] = target: T10, ADI-26915; assay: SPR Carterra avidity, yeast anti-ID
T10 construct: anti-CD3 antibody made in CHO cells, captured by anti-human Fc
Procedure, shortened: as §2

[11] = target: T11, ADI-74966; assay: SPR Carterra avidity, yeast anti-ID
T11 construct: pH-dependent anti-CD3 antibody made in CHO cells
Procedure, shortened: as §2

[12] = target: T12, ADI-26924; assay: SPR Carterra avidity, yeast anti-ID
T12 construct: anti-CD3 antibody made in CHO cells, captured by anti-human Fc
Procedure, shortened: as §2

[13] = target: T13, ADI-67447; assay: SPR Carterra avidity, yeast anti-ID
T13 construct: anti-CD3 antibody made in CHO cells, captured by anti-human Fc
Procedure, shortened: as §2

[14] = target: T14, ADI-50024; assay: SPR Carterra avidity, yeast anti-ID
T14 construct: anti-CD3 antibody made in CHO cells, captured by anti-human Fc
Procedure, shortened: as §2

[15] = target: T15, ADI-26909; assay: SPR Carterra avidity, yeast anti-ID
T15 construct: anti-CD3 antibody made in CHO cells, captured by anti-human Fc
Procedure, shortened: as §2

[16] = target: T16, ADI-74968; assay: SPR Carterra avidity, yeast anti-ID
T16 construct: pH-dependent anti-CD3 antibody made in CHO cells
Procedure, shortened: as §2

[17] = target: T17, ADI-26913 IgG; assay: SPR Carterra avidity, yeast anti-ID
T17 construct: anti-CD3 IgG
Procedure, shortened: as §2

[18] = target: T18, ADI-48587; assay: SPR Carterra avidity, yeast anti-ID
T18 construct: pH-dependent anti-CD3 antibody made in CHO cells
Procedure, shortened: as §2

[19] = target: T19, ADI-26912; assay: SPR Carterra avidity, yeast anti-ID
T19 construct: anti-CD3 antibody made in CHO cells, captured by anti-human Fc
Procedure, shortened: as §2

[20] = target: T20, ADI-70327; assay: SPR Carterra avidity, yeast anti-ID
T20 construct: anti-CD3 antibody made in CHO cells, captured by anti-human Fc
Procedure, shortened: as §2

[21] = target: T21, ADI-76360; assay: SPR Carterra avidity, yeast anti-ID
T21 construct: anti-CD3 antibody made in CHO cells, captured by anti-human Fc
Procedure, shortened: as §2

[22] = target: T22, ADI-67450; assay: SPR Carterra avidity, yeast anti-ID
T22 construct: anti-CD3 antibody made in CHO cells, captured by anti-human Fc
Procedure, shortened: as §2

[23] = target: T23, ADI-70326; assay: SPR Carterra avidity, yeast anti-ID
T23 construct: anti-CD3 antibody made in CHO cells, captured by anti-human Fc
Procedure, shortened: as §2

[24] = target: T24, ADI-67445; assay: SPR Carterra avidity, yeast anti-ID
T24 construct: anti-CD3 antibody made in CHO cells, captured by anti-human Fc
Procedure, shortened: as §2

[25] = target: T25, ADI-74967; assay: SPR Carterra avidity, yeast anti-ID
T25 construct: pH-dependent anti-CD3 antibody made in CHO cells
Procedure, shortened: as §2

[26] = target: T26, ADI-26943; assay: SPR Carterra avidity, yeast anti-ID
T26 construct: anti-CD3 antibody made in CHO cells, captured by anti-human Fc
Procedure, shortened: as §2

[27] = target: T27, ADI-74965; assay: SPR Carterra avidity, yeast anti-ID
T27 construct: pH-dependent anti-CD3 antibody made in CHO cells
Procedure, shortened: as §2

[28] = target: T28, ADI-48650; assay: SPR Carterra avidity, yeast anti-ID
T28 construct: pH-dependent anti-CD3 antibody made in CHO cells
Procedure, shortened: as §2

[29] = target: T29, ADI-76361; assay: SPR Carterra avidity, yeast anti-ID
T29 construct: anti-CD3 antibody made in CHO cells, captured by anti-human Fc
Procedure, shortened: as §2

[30] = target: T30, ADI-26906 IgG; assay: SPR Carterra avidity, yeast anti-ID, *koff limit
T30 construct: anti-CD3 IgG
Procedure, shortened: as §2

[31] = target: T31, ADI-26920 IgG; assay: SPR Carterra avidity, yeast anti-ID, *koff limit
T31 construct: anti-CD3 IgG
Procedure, shortened: as §2

[32] = target: T32, ADI-26919; assay: SPR Carterra avidity, yeast anti-ID, *koff limit
T32 construct: anti-CD3 antibody made in CHO cells, captured by anti-human Fc
Procedure, shortened: as §2

[33] = target: T33, ADI-48592; assay: SPR Carterra, yeast anti-ID
T33 construct: pH-dependent anti-CD3 antibody made in CHO cells
Procedure, shortened: as §2

[34] = target: T34, CTL-62228; assay: SPR Carterra, yeast anti-ID
T34 construct: also called glofitamab
Procedure, shortened: as §2

[35] = target: T35, CTL-62227; assay: SPR Carterra, yeast anti-ID
T35 construct: also called odronextamab
Procedure, shortened: as §2

[36] = target: T36, ADI-48576; assay: SPR Carterra, yeast anti-ID
T36 construct: pH-dependent anti-CD3 antibody made in CHO cells
Procedure, shortened: as §2

[37] = target: T37, CTL-62240; assay: SPR Carterra, yeast anti-ID
T37 construct: also called ONO-4685
Procedure, shortened: as §2

T32 sequence (VH, as listed by the source limits assumed, chain 1 of 2): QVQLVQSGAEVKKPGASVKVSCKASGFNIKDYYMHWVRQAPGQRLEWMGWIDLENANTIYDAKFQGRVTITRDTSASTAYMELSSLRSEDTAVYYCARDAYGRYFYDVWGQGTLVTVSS
T32 sequence (VL, as listed by the source limits assumed, chain 2 of 2): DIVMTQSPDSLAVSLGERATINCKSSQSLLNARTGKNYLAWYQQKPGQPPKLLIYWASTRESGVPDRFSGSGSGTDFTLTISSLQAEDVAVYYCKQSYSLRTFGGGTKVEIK
T30 sequence (VL, as listed by the source limits assumed, chain 2 of 2): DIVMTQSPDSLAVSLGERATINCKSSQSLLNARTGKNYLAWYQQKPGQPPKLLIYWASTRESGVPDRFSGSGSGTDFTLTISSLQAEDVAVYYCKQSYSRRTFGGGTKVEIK
T6 sequence (VH, as listed by the source, chain 1 of 2): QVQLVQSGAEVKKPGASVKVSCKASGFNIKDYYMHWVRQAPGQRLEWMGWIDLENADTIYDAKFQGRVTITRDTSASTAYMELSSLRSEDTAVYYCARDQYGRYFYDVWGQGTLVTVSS
T35 sequence (VH, as listed by the source, chain 1 of 2): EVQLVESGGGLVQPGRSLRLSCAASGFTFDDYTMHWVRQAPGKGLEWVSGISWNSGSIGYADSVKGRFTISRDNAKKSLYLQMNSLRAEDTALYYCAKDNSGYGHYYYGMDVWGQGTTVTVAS
T35 sequence (VL, as listed by the source, chain 2 of 2): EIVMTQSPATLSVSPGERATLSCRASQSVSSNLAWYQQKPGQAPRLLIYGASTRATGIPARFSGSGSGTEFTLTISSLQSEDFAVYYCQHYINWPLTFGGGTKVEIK
T36 sequence (VH, as listed by the source, chain 1 of 2): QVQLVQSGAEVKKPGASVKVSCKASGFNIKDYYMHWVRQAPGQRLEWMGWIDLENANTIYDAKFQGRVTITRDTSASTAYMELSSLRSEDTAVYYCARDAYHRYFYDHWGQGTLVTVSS
T36 sequence (VL, as listed by the source, chain 2 of 2): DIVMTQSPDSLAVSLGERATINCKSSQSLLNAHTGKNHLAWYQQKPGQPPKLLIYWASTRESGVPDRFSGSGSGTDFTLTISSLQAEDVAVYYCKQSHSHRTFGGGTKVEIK
T26 sequence (VH, as listed by the source, chain 1 of 2): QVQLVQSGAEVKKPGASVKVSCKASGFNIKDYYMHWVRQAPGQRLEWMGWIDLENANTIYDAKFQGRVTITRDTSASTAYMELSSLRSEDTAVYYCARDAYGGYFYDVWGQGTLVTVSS
T26 sequence (VL, as listed by the source, chain 2 of 2): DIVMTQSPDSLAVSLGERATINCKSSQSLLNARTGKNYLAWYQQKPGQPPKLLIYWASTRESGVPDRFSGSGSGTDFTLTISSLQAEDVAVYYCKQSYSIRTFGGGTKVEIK
T21 sequence (VH, as listed by the source, chain 1 of 2): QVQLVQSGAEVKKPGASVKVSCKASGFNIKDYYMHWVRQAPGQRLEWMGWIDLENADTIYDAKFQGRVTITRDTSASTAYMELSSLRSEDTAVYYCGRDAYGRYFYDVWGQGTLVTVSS
T14 sequence (VH, as listed by the source limits assumed, chain 1 of 2): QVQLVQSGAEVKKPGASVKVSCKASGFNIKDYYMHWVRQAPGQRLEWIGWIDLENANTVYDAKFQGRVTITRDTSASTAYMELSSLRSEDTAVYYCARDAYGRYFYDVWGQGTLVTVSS
T14 sequence (VL, as listed by the source limits assumed, chain 2 of 2): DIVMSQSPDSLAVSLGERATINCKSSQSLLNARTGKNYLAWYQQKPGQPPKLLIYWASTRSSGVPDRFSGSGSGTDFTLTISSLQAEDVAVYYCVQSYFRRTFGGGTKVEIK
T27 sequence (VH, as listed by the source, chain 1 of 2): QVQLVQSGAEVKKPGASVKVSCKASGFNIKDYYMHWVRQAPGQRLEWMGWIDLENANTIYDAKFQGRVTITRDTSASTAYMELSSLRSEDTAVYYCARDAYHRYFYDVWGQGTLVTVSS
T27 sequence (VL, as listed by the source, chain 2 of 2): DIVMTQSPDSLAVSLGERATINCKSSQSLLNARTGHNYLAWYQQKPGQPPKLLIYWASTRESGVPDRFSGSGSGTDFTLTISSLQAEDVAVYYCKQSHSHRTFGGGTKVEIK
T16 sequence (VL, as listed by the source, chain 2 of 2): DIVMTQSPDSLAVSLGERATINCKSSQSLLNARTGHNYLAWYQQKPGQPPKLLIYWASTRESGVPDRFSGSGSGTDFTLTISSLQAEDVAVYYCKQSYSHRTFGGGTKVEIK
T9 sequence (VH, as listed by the source limits assumed, chain 1 of 2): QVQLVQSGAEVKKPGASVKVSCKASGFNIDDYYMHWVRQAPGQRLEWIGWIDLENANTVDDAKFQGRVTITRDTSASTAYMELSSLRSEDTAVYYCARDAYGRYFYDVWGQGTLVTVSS
T3 sequence (VH, as listed by the source, chain 1 of 2): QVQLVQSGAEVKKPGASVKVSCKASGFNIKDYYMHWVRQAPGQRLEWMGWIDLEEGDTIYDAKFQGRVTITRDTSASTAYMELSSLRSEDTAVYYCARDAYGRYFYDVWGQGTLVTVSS
T19 sequence (VH, as listed by the source, chain 1 of 2): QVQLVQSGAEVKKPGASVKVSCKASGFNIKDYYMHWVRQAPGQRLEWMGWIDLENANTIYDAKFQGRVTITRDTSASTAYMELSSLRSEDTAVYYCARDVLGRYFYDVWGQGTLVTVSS
T31 sequence (VH, as listed by the source limits assumed, chain 1 of 2): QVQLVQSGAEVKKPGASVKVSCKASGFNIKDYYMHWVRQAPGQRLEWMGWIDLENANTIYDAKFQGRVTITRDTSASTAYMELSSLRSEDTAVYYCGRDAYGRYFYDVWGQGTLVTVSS
T10 sequence (VH, as listed by the source, chain 1 of 2): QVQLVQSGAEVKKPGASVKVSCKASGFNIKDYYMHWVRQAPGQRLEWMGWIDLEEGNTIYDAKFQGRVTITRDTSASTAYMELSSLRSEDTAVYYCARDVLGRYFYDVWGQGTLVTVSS
T1 sequence (VH, as listed by the source limits assumed, chain 1 of 2): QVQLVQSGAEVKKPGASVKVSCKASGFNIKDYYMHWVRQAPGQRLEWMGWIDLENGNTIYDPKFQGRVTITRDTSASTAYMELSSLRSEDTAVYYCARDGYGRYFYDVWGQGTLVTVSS
T1 sequence (VL, as listed by the source limits assumed, chain 2 of 2): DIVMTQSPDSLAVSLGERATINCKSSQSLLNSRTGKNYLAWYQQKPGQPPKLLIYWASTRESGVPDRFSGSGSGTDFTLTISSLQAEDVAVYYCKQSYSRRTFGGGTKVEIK
T22 sequence (VH, as listed by the source limits assumed, chain 1 of 2): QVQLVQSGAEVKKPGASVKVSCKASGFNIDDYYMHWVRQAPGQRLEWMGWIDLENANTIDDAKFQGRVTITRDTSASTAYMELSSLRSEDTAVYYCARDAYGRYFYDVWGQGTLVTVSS

B1: ADI-34133 (antibody, V domains shown)
VH: QVQLVQSGAEVKKPGSSVKVSCKASGGTFSSYAISWVRQAPGQGLEWMGGIIPIFGTANYAQKFQGRVTITADESTSTAYMELSSLRSEDTAVYYCARGAPNYYGSGGYDDGWFDPWGQGTLVTVSS
VL: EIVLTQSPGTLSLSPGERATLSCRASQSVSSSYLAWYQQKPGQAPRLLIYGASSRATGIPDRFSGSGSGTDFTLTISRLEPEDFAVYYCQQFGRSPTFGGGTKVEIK
notes: anti-ID IgG
Question: Which Kd [1] does the source give for B1 here?
Answer: Its Kd is 9.59 nM.

Question: What about the Kd [2] of the same binder?
Answer: Its Kd is 0.59 nM.

Question: And the Kd [3]?
Answer: Its Kd is 2 nM.

Question: And the Kd [4]?
Answer: Its Kd is 0.96 nM.

Question: What about the Kd [5] of the same binder?
Answer: Its Kd is 0.96 nM.

Question: Does B1 bind [6]?
Answer: Result: binds

Question: Does B1 bind [7]?
Answer: Result: binds

Question: And the Kd [8]?
Answer: The Kd was 0.24 nM.

Question: And the Kd [9]?
Answer: The Kd was 1.9 nM.

Question: Does B1 bind [10]?
Answer: Result: binds

Question: Does B1 bind [11]?
Answer: Result: binds

Question: And the Kd [12]?
Answer: Its Kd is 1.1 nM.

Question: What about the Kd [13] of the same binder?
Answer: Its Kd is 1.3 nM.

Question: And the Kd [14]?
Answer: Its Kd is 1.1 nM.

Question: And the Kd [15]?
Answer: The Kd was 1.3 nM.

Question: And the Kd [16]?
Answer: Its Kd is 8.2 nM.

Question: What about the Kd [17] of the same binder?
Answer: Its Kd is 1.9 nM.

Question: And the Kd [18]?
Answer: The Kd was 20 nM.

Question: What about the Kd [19] of the same binder?
Answer: The Kd was 52 nM.

Question: Does B1 bind [20]?
Answer: Result: binds

Question: What about the Kd [21] of the same binder?
Answer: The Kd was 1.7 nM.

Question: What about the Kd [22] of the same binder?
Answer: The Kd was 2 nM.

Question: Does B1 bind [23]?
Answer: Result: binds

Question: What about the Kd [24] of the same binder?
Answer: Its Kd is 1.1 nM.

Question: What about the Kd [25] of the same binder?
Answer: The Kd was 1.9 nM.

Question: And the Kd [26]?
Answer: Its Kd is 0.65 nM.

Question: What about the Kd [27] of the same binder?
Answer: The Kd was 18 nM.

Question: And the Kd [28]?
Answer: Its Kd is 40 nM.

Question: What about the Kd [29] of the same binder?
Answer: Its Kd is 0.91 nM.

Question: And the Kd [30]?
Answer: The Kd was 0.3 nM.

Question: What about the Kd [31] of the same binder?
Answer: The Kd was 0.24 nM.

Question: And the Kd [32]?
Answer: Its Kd is 0.35 nM.

Question: Does B1 bind [33]?
Answer: Result: no binding (tested: up to 200 nM)

Question: Does B1 bind [34]?
Answer: Result: no binding (tested: up to 200 nM)

Question: Does B1 bind [35]?
Answer: Result: no binding (tested: up to 200 nM)

Question: Does B1 bind [36]?
Answer: Result: no binding (tested: up to 200 nM)

Question: Does B1 bind [37]?
Answer: Result: no binding (tested: up to 200 nM)
